Biological target: T1, BCMA抗原 (antigen in solution, Biacore) (UniProt Q02223 1-54, limits assumed)
T1 construct: also called B细胞成熟抗原; CD269
T1 sequence (looked up): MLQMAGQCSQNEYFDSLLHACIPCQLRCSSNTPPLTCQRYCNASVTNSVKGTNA
Assay: Biacore SPR, antibody immobilised on the chip, antigen in the mobile phase

- Kd: 0.0634 nM
- koff: 0.000429 s⁻¹
- kon: 6.77e+06 M⁻¹ s⁻¹
B1: BCMA-12 VHH-mIgG2a Fc 纳米抗体 (Fc fusion)
chain: EVQLVESGGDSVQAGGSLRLSCAVSGYTDSKNLMGWFRQAPGKEREGVAVIYTGGGRPVYADSVKGRFTISQDSAKNTVYLQMNSLKPEDTALYYCAADYLGGAWPFGAYRYWGQGTQVTVSS
notes: also called BCMA VHH B12; BCMA VHH抗体; not shown: mouse IgG2a Fc tag of vector C-4 pCP.Stuffer-mCg2a-FC
